{"source": "paper PMC3115793", "about": "(The Journal of Cell Biology, 2011)", "binders": {"B1": {"name": "GST fused to aa 779-968 of the PC2 C terminus (domain or fragment, human, UniProt Q13563 779-968, looked up)", "chain": "RDDLEKEREDLDLDHSSLPRPMSSRSFPRSLDDSEEDDDEDSGHSSRRRGSISSGVSYEEFQVLVRRVDRMEHSIGSIVSKIDAVIVKLEIMERAKLKRREVLGRLLDGVAEDERLGRDSEIHREQMERLVREELERWESDDAASQISHGLGTPVGLNGQPRPRSSRPSSSQSTEGMEGAGGNGSSNVHV"}}, "target": "T1, recombinant purified full-length AurA (His-AurA) (UniProt O14965 1-403)", "T1 sequence (looked up)": "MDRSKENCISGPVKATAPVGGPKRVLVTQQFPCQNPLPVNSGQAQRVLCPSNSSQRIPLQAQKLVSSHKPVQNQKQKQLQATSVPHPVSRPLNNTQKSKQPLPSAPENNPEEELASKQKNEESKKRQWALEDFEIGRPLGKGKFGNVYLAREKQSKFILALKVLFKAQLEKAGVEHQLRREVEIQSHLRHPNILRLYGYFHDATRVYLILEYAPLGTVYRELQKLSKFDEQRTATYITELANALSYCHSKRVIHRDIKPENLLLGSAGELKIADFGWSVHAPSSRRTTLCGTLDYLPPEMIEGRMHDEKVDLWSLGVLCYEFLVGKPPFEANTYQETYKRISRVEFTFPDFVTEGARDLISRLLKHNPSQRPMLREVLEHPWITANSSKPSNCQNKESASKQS", "assay": "pull-down", "data": [{"binder": "B1", "values": [{"measurement": "binding result", "result": "binds"}]}]}
